# According to patent US8158577B2, “Modulation of cartilage homeostasis by active domains of cell binding extracellular matrix molecules” (priority 2004, dated 2012):
# B1: Chondroadherin (protein)
# chain: ACPQNCHCHSDLQHVICDKVGLQKIPKVSEKTKLLNLQRNNFPVLAANSFRAMPNLVSLHLQHCQIREVAAGAFRGLKQLIYLYLSHNDIRVLRAGAFDDLTELTYLYLDHNKVTELPRGLLSPLVNLFILQLNNNKIRELRAGRFQGAKDLRWLYLSENALSSLQPGALDDVENLAKFHVDRNQLSSYPSAALSKLRVVEELKLSHNPLKSIPDNAFQSFGRYLETLWLDNTNLEKFSDGAFLGVTTLKHVHLENNRLNQLPSNFPFDSLETLALTNNPWKCTCQLRGLRRWLEAKASRPDATCASPAKFKGQHIRDTDAFRSCKFPTKRSKKAGRH
# modifications: homo sapiens
# notes: leucine-rich cartilage matrix protein, 338 amino acids; human recombinant, expressed in EBNA cells or E. coli
# Key:
# K9 cells = assay: Adhesion of K9 cells to selected matrix constituents (FIG. 1); format: cell-based, human; conditions: 5 μg/ml coating, 1 hour at 37° C., 50,000 cells/well seeded
# Experimental: Human cells (K9) originating from a human chondrosarcoma were a kind gift from Drs. Sven Inerot and Anders Lindahl, The Salgrenska University Hospital Gothenburg, Sweden. The K9 cells were cultured in Dulbeccos Modified Eagle Medium: Nutrient Mixture F12 (DMEM/F12 1:1) with GLUTAMAX I, supplemented with 10% fetal calf serum, 25 μg/ml ascorbic acid, 50 IU of penicillin and 50 μg/ml streptomycin (Life Technologies, Inc.). A different human cells line (K105) originating from a human chondrosarcoma was a kind gift from Dr. Sven Inerot, The Salgrenska University Hospital, Gothenburg, Sweden. […]
# To test cell binding, the chondrosarcoma cells or bovine chondrocytes were suspended in PBS containing 0.1% BSA, 25 U/ml collagenase and added to the wells (50,000/well), in the absence or presence of various peptide pools or the synthetic peptides (200, 100, 50, 25, 12.5 μg/ml). Non-adherent cells were removed after 1 hour and adhesion was determined by measuring lysosomal N-acetylglucosaminidase (12). […]
# 48-well tissue culture dishes were coated with 5 μg/ml collagen type II, tissue extracted bovine chondroadherin, human chondroadherin expressed in EBNA cells and human chondroadherin expressed in E. coli and blocked for non-specific binding with BSA. […] Nonadherent cells were removed by washing and adhesion was determined by analyzing lysosomal N-acetylglucosaminidase. […]
# [1] = Heparin binding on Heparin-Sepharose; conditions: eluted with NaCl (0.5, 1, 2M), Western blot or MALDI-TOF MS
# Experimental: Intact recombinant protein (10 μg, EBNA-cell expressed) diluted in PBS was passed over Heparin-Sepharose (Amersham Pharmacia) (1 ml), washed with 20 volumes of PBS and eluted with 2 M NaCl (6×1 ml). Eluted material was precipitated with ethanol, separated by SDS-PAGE (10%) and visualized by western blot (CHAD ab α-80, Larsson et al). The peptide CKFPTKRSKKAGRH (SEQ ID No:7) was diluted in PBS and passed over heparin-sepharose (100 μl), the column was washed with 20 volumes PBS and bound material eluted with 0.5, 1, and 2M NaCl (3 column volumes of each).
# Recombinant chondroadherin (10 or 100 μg) expressed in EBNA-cells was passed over Heparin-Sepharose-column (Pharmacia). The column was washed and eluted with 2M NaCl in PBS. Eluted material was separated on SDS-PAGE (10%) and detected by western blot using a chondroadherin antibody (see FIG. 4). The band at 36 kDa represents chondroadherin ant the band at 72 kDa represents a dimer of chondroadherin.
# The candidate peptide CKFPTKRSKKAGRH (SEQ ID No: 7) was synthesized. The ability of the peptide to bind heparin was confirmed on heparin-sepharose, where material eluted with 0.5, 1 and 2M NaCl was identified by MALDI-TOF MS (data not shown).
# Syndecan 3 = molecular target: T1, Syndecan 3 (Homo sapiens, UniProt O75056); assay: Affinity purification of K105 membrane proteoglycans on chondroadherin-agarose and immunoprecipitation with pan-syndecan antibody; format: binding; conditions: eluted with 0.5 M NaCl, after heparitinase
# T1 construct: endogenous in cells; host or cells: human chondrosarcoma cells K105 (membrane fraction, surface-biotinylated)
# T1 sequence (O75056 whole entry): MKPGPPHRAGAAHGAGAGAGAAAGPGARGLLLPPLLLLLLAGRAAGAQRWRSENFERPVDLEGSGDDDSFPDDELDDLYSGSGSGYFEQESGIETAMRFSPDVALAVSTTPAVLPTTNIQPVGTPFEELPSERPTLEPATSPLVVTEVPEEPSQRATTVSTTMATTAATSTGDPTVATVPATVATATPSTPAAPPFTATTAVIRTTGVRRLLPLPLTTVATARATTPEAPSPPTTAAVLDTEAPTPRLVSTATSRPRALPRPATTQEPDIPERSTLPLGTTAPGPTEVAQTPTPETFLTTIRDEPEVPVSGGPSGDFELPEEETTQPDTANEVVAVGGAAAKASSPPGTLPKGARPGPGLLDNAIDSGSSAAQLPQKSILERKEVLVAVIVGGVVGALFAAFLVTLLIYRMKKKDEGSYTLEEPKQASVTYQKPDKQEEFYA
# Experimental: Recombinant chondroadherin (2.5 mg expressed in EBNA-cells per ml agarose) was coupled to Mini-Leak agarose (Kem En Tec, A/S, Denmark) according to the manufacturer's instructions. The control agarose was treated in the same manner but with no protein added.
# Human chondrosarcoma cells (k105) suspended in PBS were incubated with EZ-link sulfo NHS-LC biotin (Pierce Chemical Co) at a final concentration of 1 mg/ml for 1 hour at room temperature. The cells were incubated for 10 minutes in 0.1 M glycine in PBS to block free biotin, washed three times in PBS and then resuspended and homogenized in 10 mM KCl, 20 mM Tris/HCl, pH 7.4, 1 mM EDTA (1 ml/10^6 cells). Nuclei were removed by centrifugation at 1,500 g for 5 minutes, 0.15 M NaCl was added to the supernatant and the membrane fraction was collected by centrifugation at 50,000 g for 30 minutes. The pellet was suspended in 2 ml 8 M UREA, 2% […] in TBS pH 7.4 supplemented with COMPLET® protease inhibitor (Roche). The lysate was cleared by centrifugation at 14,000 g for 20 min. […]
# Cell surface proteins on human chondrosarcoma cells (K105) were biotin labeled and affinity purified on chondroadherin-agarose in urea. Bound material was eluted with 0.5 M NaCl, separated on SDS-PAGE (4-12%) and detected by Western blot before or after heparitinase and chondroitinase ABC treatment. […]
molecule,measurement,setting,value
B1,adhesion of K9 cells to coated substrate (number of cells),K9 cells,virtually identical to that of the bacterially expressed
same,binding to heparin-sepharose,[1],bind to the heparin-sepharose
same,binding to heparin-sepharose,[1]; listed as Recombinant chondroadherin,bind heparin
same,K105 membrane component bound to chondroadherin,Syndecan 3,Syndecan 3
